The record followed here is patent US20050032118A1, “Nitrophenyl derivatives that can be activated by light” (priority 1996, published 2005).

The nature of this data set: Photolysis of nitrobenzyl-BSA conjugates with ultraviolet light (365 nm), residues counted by spectrophotometry. To be noted: for residues removed on irradiation with light: BSA as model protein, 8-15 residues bound, approximately 10 mins; for NBE residues cleaved from the protein / NBE residues cleaved: UV 10 min.

For `CC(O)Cc1ccccc1[N+](=O)[O-]` (centres unmarked) [NBE, 1-(2-nitrobenzyl)ethanol], the “residues removed on irradiation with light” value was “about 95%”.
In the case of “NBE-BSA conjugates: bovine serum albumin randomly coated with NBE residues through nitrobenzyloxycarbonyl chloride”, the “NBE residues cleaved from the protein” value is on record as 3 residues (3 NBE residues bound per protein molecule (50 mg sample)) and 14 residues (14.8 NBE residues bound per protein molecule (25 mg sample)). For the same compound, the NBE residues cleaved by setting is: (3.5 NBE residues per BSA molecule) 2.5 residues; (6.9 NBE residues per BSA molecule) 6.0 residues; (10.8 NBE residues per BSA molecule) 10 residues; (14.5 NBE residues per BSA molecule) 14 residues.
For `O=[N+]([O-])c1ccccc1CO` [NBA, 2-nitrobenzyl alcohol], the “residues removed on irradiation with light” value is given as around 65%.
